According to patent publication US20070014785A1:

Target: human CD20 (entire coding sequence, expressed on the cell surface after LTR-CD20-LTR retroviral transduction) (human) (UniProt P11836)
Assay: cell-based or functional assay

Chain of UniProt P11836 (P11836 whole entry): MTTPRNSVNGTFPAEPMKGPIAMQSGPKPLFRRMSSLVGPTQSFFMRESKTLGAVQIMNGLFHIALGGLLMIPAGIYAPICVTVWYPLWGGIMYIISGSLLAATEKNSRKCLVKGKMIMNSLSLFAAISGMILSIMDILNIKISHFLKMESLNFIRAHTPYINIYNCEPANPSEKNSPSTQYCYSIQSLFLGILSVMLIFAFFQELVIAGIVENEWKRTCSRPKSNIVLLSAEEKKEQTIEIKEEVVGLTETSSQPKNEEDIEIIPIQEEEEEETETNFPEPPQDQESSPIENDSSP

% specific lysis, Rituximab alone (Donor 1, 30% CD3/CD20+ lymphocytes): 0% | % specific lysis, Rituximab alone (Donor 2, 23% CD3/CD20+ lymphocytes): 0% | % specific lysis, Rituximab alone (Donor 3, 15% CD3/CD20+ lymphocytes): 0% | % specific lysis, Rituximab plus complement (Donor 1, 30% CD3/CD20+ lymphocytes): 33% | % specific lysis, Rituximab plus complement (Donor 2, 23% CD3/CD20+ lymphocytes): 35% | % specific lysis, Rituximab plus complement (Donor 3, 15% CD3/CD20+ lymphocytes): 18%
Substance: Rituximab (Roche), humanised monoclonal antibody against CD20
death of the CD3/CD20+ cells after one hour exposure (complement-dependent cytotoxicity): 90%
